Data reported in patent publication US20020058247A1.

Biological target: … (SEQ. ID. No. 74)
Experiment: competition EIA, 5 ug HBcAg peptide + 5 ug SEQ 74 peptide on coated HBcAg (competitor); OD of bound SEQ 74 peptide

Row | Substance | OD at 490 nm [OD]
1 | HBcAg peptide … (residues 51-70, Sequence ID 100) | 0.646
2 | HBcAg peptide … (residues 111-131 as printed, Sequence ID 106) | 0.832
3 | HBcAg peptide … (residues 121-140, Sequence ID 107) | 0.701
4 | HBcAg peptide … (residues 141-160, Sequence ID 109) | 0.811
5 | HBcAg peptide … (residues 151-170, Sequence ID 110) | 0.732
6 | HBcAg peptide … (residues 161-183, Sequence ID 111) | 0.678
